{"source": "patent US20220024991A1", "about": "(GENOME PROTECTION, published 2022)", "binders": {"B1": {"name": "entolimod/CBLB502 (ligand)", "chain": "not shown"}}, "biological_target": "human TLR5 (293-hTLR5-LacZ reporter cells) (human, UniProt O60602 21-858)", "sequence (O60602 21-858)": "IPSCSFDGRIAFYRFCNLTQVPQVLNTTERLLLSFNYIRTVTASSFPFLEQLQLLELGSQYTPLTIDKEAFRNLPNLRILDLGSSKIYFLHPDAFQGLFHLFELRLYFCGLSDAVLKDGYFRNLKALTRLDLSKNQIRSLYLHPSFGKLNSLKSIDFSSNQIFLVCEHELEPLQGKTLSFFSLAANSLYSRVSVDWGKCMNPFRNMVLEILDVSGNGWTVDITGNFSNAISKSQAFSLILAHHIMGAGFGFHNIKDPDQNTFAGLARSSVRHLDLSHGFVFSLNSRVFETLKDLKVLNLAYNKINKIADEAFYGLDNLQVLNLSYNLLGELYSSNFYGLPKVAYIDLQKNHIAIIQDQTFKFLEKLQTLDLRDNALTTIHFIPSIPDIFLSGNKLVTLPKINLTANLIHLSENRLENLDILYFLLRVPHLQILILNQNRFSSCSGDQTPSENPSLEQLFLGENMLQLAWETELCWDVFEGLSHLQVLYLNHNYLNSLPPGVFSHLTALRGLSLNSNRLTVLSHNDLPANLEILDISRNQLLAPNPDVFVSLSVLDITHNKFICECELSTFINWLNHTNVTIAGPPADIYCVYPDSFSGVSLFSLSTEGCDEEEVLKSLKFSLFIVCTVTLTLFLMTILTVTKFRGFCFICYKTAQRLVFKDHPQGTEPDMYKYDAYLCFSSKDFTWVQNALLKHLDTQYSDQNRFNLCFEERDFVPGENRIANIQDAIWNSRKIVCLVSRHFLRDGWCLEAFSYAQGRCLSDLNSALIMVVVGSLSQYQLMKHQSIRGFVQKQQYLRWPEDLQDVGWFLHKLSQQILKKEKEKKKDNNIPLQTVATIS", "test": "cell-based or functional assay", "data": [{"binder": "B1", "values": [{"measurement": "EC50, ng/ml (NF-κB reporter enzyme activity)", "value": 0.032, "unit": "ng/mL"}, {"measurement": "EC50, pM (NF-κB reporter enzyme activity)", "value": 0.92, "unit": "pM"}]}]}
